Assay results reported in patent US20130260436A1, “Methods of Identifying and Characterizing Natural Product Gene Clusters” (Victoria LInk Limited, priority 2010, published 2013).
Where “and” joins values, the source holds several entries; their conditions need not be identical. Equal entries are not always repeated.

Experiments:
[1] = tested on: BpsA, single module non-ribosomal peptide synthetase of Streptomyces lavendulae ATCC 11924, purified recombinant 6His-tagged protein (apo form)
[2] = target: Sfp, phosphopantetheinyl transferase of Bacillus subtilis subsp. spizizenii ATCC6633 (Bacillus subtilis subsp. spizizenii ATCC6633); assay: cell-based or functional assay
[3] = target: PcpS, phosphopantetheinyl transferase of Pseudomonas aeruginosa PAO1 (Pseudomonas aeruginosa PAO1); assay: cell-based or functional assay
[4] = target: PP1183, putative phosphopantetheinyl transferase of Pseudomonas putida KT2440 (Pseudomonas putida KT2440); assay: cell-based or functional assay
[5] = tested on: E. coli harbouring an activating PPTase; assay: In vivo pigment synthesis activity of BpsA derivatives relative to wild type BpsA; assay type: cell-based; details: for Relative activity (in vivo pigment synthesis relative to wild type BpsA): E. coli, supernatant A590
Excerpt: A detailed description of the method used for generation of mBpsA derivatives is given in Section 4.15. Briefly, a plasmid containing bpsA lacking its native T-domain (pBPSA3) was created. This plasmid contained restriction enzyme sites which were subsequently used to introduce foreign T-domain sequence. Foreign T-domains were then amplified from the chromosomal DNA of their host organisms and introduced into pBPSA3 to generate mBpsA derivatives which contained T-domains from foreign NRPS proteins in place of the native T-domain. Only the final embodiment of the T-domain swapping platform is described in this application. This embodiment is the result of rational in-silico design as well as trial and error, which are not described. Using this final platform, five different mBpsA derivatives were generated and subsequently assessed for in vivo pigment synthesis capacity in E. coli harbouring an activating PPTase. Table 3.1 gives a summary of the mBpsA derivatives generated as well as their in vivo pigment synthesis activities relative to wild type BpsA. The derivation of in vivo pigment synthesis activity was as described in 4.10.
For second tier screening, up to 45 improved clones, along with a positive and negative control, were stored as duplicate glycerol stocks in a 96wp. From this plate duplicate overnight cultures were established in LB supplemented with 0.4% glucose and appropriate antibiotics. […] Overnight cultures were grown for 16-20 h (37° C. 200 rpm) before transfer of 20 μl of each culture into a fresh well containing 130 μL LB supplemented with 115 mM L-Gln, 0.6 mM IPTG and appropriate antibiotics. Assay plates set up in this fashion contained duplicate cultures for each clone from two separate overnights. Assay plates were then wrapped in foil and incubated for 6-24 h (18° C., 200 rpm), depending on activity of improved clones. After incubation cells were collected at the corner of each well by centrifugation and OD 590 values determined using a microplate reader. Assays were repeated at least twice before determination of clones for sequence analysis.
In vivo pigment synthesis efficiencies for recombinant BpsA proteins described in Section 3.2 were derived from three separate assays. This was necessary due to the fact that pigment synthesis of wild type BpsA saturate before activity of mBpsA derivatives was detectable. Replicate cultures for determination of in vivo pigment synthesis activity were established from overnight starter cultures in a 96 wp as described in Section 4.9.3 The values presented are derived as follows: quadruplicate values for WT BpsA and oBpsA (mutant with reduced activity) were determined after 3 h, at which point pigment production was not saturated for WT. A separate quadruplicate assay was then run to obtain a value for slEntF by comparison to oBpsA after 12 h. Quadruplicate values for slPsT and slPvdD2 were then obtained in a separate assay by comparison to slEntF after 12 h.

Row | Molecule | IC50 (carrier protein competition with BpsA for limiting CoA) [2] [nM] | kcat/Km (estimate derived from IC50) (Min^-1 · µM^-1) [2] | IC50 (carrier protein competition with BpsA for limiting CoA) [3] [nM] | kcat/Km (estimate derived from IC50) (Min^-1 · µM^-1) [3] | IC50 (carrier protein competition with BpsA for limiting CoA) [4] [nM] | kcat/Km (estimate derived from IC50) (Min^-1 · µM^-1) [4] | Relative activity (in vivo pigment synthesis relative to wild type BpsA) [5] | further results
1 | PcpS, phosphopantetheinyl transferase of Pseudomonas aeruginosa PAO1 |  |  |  |  |  |  |  | Km (BpsA as variable substrate), BpsA coupled indigoidine assay [1]: 6.5 µM; kcat (BpsA as variable substrate), BpsA coupled indigoidine assay [1]: 0.687 s⁻¹; kcat/Km (BpsA as variable substrate), BpsA coupled indigoidine assay [1]: 107000 M⁻¹ s⁻¹
2 | The aryl carrier protein from Nostoc punctiforme protein HetM (npArCP), purified recombinant His6 tagged | 140 | 3.51 | 8460 | 0.65 | 6000 | 0.19 |  | 
3 | The peptide carrier protein of the Microcysitis aeruginosa NRPS/PKS MycG (mPCP), purified recombinant His6 tagged | 150 | 3.33 | 990 | 5.55 | 180 | 6.3 |  | 
4 | The peptide carrier protein of the first module of the Pseudomonas aeruginosa NRPS PvdD (pPCP), puri | 450 | 1.11 | 560 | 9.84 | 280 | 4.1 |  | 
5 | slDhbF: mBpsA with T-domain from first module of dhbF of B. subtilis; SEQ ID NO: 13 |  |  |  |  |  |  | 0% | 
6 | slPvdD1: mBpsA with T-domain from first module of pvdD of P. aeruginosa PAO1; SEQ ID NO: 5 (protein) MTLQETSVLEPTLQGTTTLPGLLAQRVAEHPEAIAVAYRDDKLTFRELASRSAALADYLEHLGVSADDCVGLFVEPSIDLMVGAWGILNAGAAYLPLSPEYPEDRLRYMIENSETKIILAQQRLVSRLRELAPKDVTIVTLRESEAFVRPEGTEAPAARSARPDTLAYVIYTSGSTGKPKGVMIEHRSIVNQLGWLRETYAIDRSKVILQKTPMSFDAAQWEILSPANGATVVMGAPGVYADPEGLIETIVKHNVTTLQCVPTLLQGLIDTEKFPECVSLQQIFSGGEALSRLLAIQTTQEMPGRALINVYGPTETTINSSSFPVDPADLDEGPQSISIGSPVHGTTYHILDKETLKPVGVGEIGELYIGGIQLARGYLHRDDLTAERFLEIELEEGAEPVRLYKTGDLGQWNNDGTVQFAGRADNQVKLRGYRVELDEISLAIENHDWVRNAAVIVKNDGRTGFQNLIACIELSEKEAALMDQGNHGSHHASKKSKLQVKAQLSNPGLRDDAELAARPAFDLEGAEPTPEQRARVFARKTYRFYEGGAVTQADLLGLLGATVTAGYSRKAADLAPAELGQILRWFGQYISEERLLPKYGYASPGALYATQMYFELEGVGGLKPGYYYYQPVRHQLVLISEREATGKATAQIHFIGKKSGIEPVYKNNILEVLEIETGHMVGLFEQILPAYGLDIHDRAYEPAVKDLLDVADEDYYLGTFELVPHAGARDDQAEVYVQTHGGKVAGLPEGQYRYENGELTRFSDDIVLKKHVIAINQSVYQAASFGISVYSRAEEEWLKYITLGKKLQHLMMNGLNLGFMSSGYSSKTGNPLPASRRMDAVLGANGVDSAPMYFFVGGRISDEQIGHEGMREDSVHMRGPAELIRDDLVSFLPDYMIPNRVVVFDRLPLSANGKIDVKALAASDQVNAELVERPYRAPGSELEQRIAAIWSEILGVERVGLDDNFFELGGHSLLATRVISRVRQEQQLDASLKALFERPVLEAFAQGLEREVAQESSRFVRLHAETGKARPVICWPGLGGYPMNLRSLAGEIGLGRSFYGVQSYGINEGETPYETITEMAKKDIEALKEIQPAGPYTLWGYSFGARVAFETAYQLEQAGEKVDNLFLIAPGSPKVRAENGKVWGREASFANRGYTTILFSVFTGTISGPDLDRCLETVTDEASFAEFISELKGIDVDLARRIISVVGQTYEFEYSFHELAERTLQAPISIFKAVGDDYSFLENSSGYSAEPPTVIDLDADHYSLLREDIGELVKHIRYLLGE |  |  |  |  |  |  | 0% | In vivo pigment synthesis capacity (qualitative) ([5]; E. coli with activating PPTase, pigment development agar or broth): completely inactive enzyme
7 | slEntF: mBpsA with T-domain from entF gene of E. coli W3110; SEQ ID NO: 11 (protein) MTLQETSVLEPTLQGTTTLPGLLAQRVAEHPEAIAVAYRDDKLTFRELASRSAALADYLEHLGVSADDCVGLFVEPSIDLMVGAWGILNAGAAYLPLSPEYPEDRLRYMIENSETKIILAQQRLVSRLRELAPKDVTIVTLRESEAFVRPEGTEAPAARSARPDTLAYVIYTSGSTGKPKGVMIEHRSIVNQLGWLRETYAIDRSKVILQKTPMSFDAAQWEILSPANGATVVMGAPGVYADPEGLIETIVKHNVTTLQCVPTLLQGLIDTEKFPECVSLQQIFSGGEALSRLLAIQTTQEMPGRALINVYGPTETTINSSSFPVDPADLDEGPQSISIGSPVHGTTYHILDKETLKPVGVGEIGELYIGGIQLARGYLHRDDLTAERFLEIELEEGAEPVRLYKTGDLGQWNNDGTVQFAGRADNQVKLRGYRVELDEISLAIENHDWVRNAAVIVKNDGRTGFQNLIACIELSEKEAALMDQGNHGSHHASKKSKLQVKAQLSNPGLRDDAELAARPAFDLEGAEPTPEQRARVFARKTYRFYEGGAVTQADLLGLLGATVTAGYSRKAADLAPAELGQILRWFGQYISEERLLPKYGYASPGALYATQMYFELEGVGGLKPGYYYYQPVRHQLVLISEREATGKATAQIHFIGKKSGIEPVYKNNILEVLEIETGHMVGLFEQILPAYGLDIHDRAYEPAVKDLLDVADEDYYLGTFELVPHAGARDDQAEVYVQTHGGKVAGLPEGQYRYENGELTRFSDDIVLKKHVIAINQSVYQAASFGISVYSRAEEEWLKYITLGKKLQHLMMNGLNLGFMSSGYSSKTGNPLPASRRMDAVLGANGVDSAPMYFFVGGRISDEQIGHEGMREDSVHMRGPAELIRDDLVSFLPDYMIPNRVVVFDRLPLSANGKIDVKALAASDQVNAELVERPGRAPKAGSETIIAAAFSSLLGCDVQDADADFFALGGHSLLAMKLAAQLSRQVARQVTPGQVMVASTVAKLATIIDREVAQESSRFVRLHAETGKARPVICWPGLGGYPMNLRSLAGEIGLGRSFYGVQSYGINEGETPYETITEMAKKDIEALKEIQPAGPYTLWGYSFGARVAFETAYQLEQAGEKVDNLFLIAPGSPKVRAENGKVWGREASFANRGYTTILFSVFTGTISGPDLDRCLETVTDEASFAEFISELKGIDVDLARRIISVVGQTYEFEYSFHELAERTLQAPISIFKAVGDDYSFLENSSGYSAEPPTVIDLDADHYSLLREDIGELVKHIRYLLGE |  |  |  |  |  |  | 5.14% and 5.14 +/− 0.28% | 
